Here are results for five molecules from patent publication US20230227568A1 (Pieris, published 2023).

The koff is the first-order rate constant of dissociation. In general, kon refers to a measure of how fast the partners come together. A word on the EC50: it is the concentration that produces a half-maximal response.

The target in experiment [1] is T1, hu4-1BB-Fc (R&D Systems) (human, UniProt Q07011 24-186).
T1 construct: Bought; also called human 4-1BB; not shown: human IgG Fc of the bought fusion
Briefly: SPR (Biacore 8K), hu4-1BB-Fc captured by anti-human IgG Fc; apparent value, 1:1 fit. How it is done:
The anti-human IgG Fc antibody (GE Healthcare) was immobilized on a CM5 sensor chip using standard amine chemistry: the carboxyl groups on the chip were activated using 1-ethyl-3-(3-dimethylaminopropyl)-carbodiimide (EDC) and N-hydroxysuccinimide (NHS). Subsequently, anti-human IgG Fc antibody solution (GE Healthcare) at a concentration of 25 μg/mL in 10 mM sodium acetate (pH 5.0) was applied at a flow rate of 5 μL/min until an immobilization level of 4000-10000 resonance units (RU) was achieved. Residual non-reacted NHS-esters were blocked by passing a solution of 1 M ethanolamine across the surface. The reference channel was treated in an analogous manner. Subsequently, hu4-1BB-Fc (R&D Systems) at 0.3 μg/mL was captured by the anti-human IgG-Fc antibody at the chip surface for 180 s at a flow rate of 10 μL/min.
The binding assay was carried out with a contact time of 180 s, a dissociation time of 1200 s or 3000 s and a flow rate of 30 μL/min. All measurements were performed at 25° C. Lipocalin mutein SEQ ID NO: 64 as included in the multimeric proteins was also tested as […]. […] Prior to the protein measurements, three startup cycles were performed for conditioning purposes. Data were evaluated with Biacore Evaluation software. Double referencing was used and the 1:1 binding model was used to fit the raw data.
A general note: Surface plasmon resonance follows binding to a sensor surface in real time, without labels.

The target in experiment [2] is T2, human 4-1BB on cells (human, UniProt Q07011 24-255). Briefly: cell-based or functional assay.
Experiment [3] deals with T3, recombinant hu4-1BB-His (human 4-1BB with a C-terminal polyhistidine tag, R&D Systems) (human, UniProt Q07011 24-186).
T3 construct: Bought; not shown: C-terminal polyhistidine tag
Briefly: ELISA, hu4-1BB-His coated, detection anti-NGAL-HRP. The method, then: Recombinant hu4-1BB-His (human 4-1BB with a C-terminal polyhistidine tag, R&D Systems) at the concentration of 1 μg/mL in PBS was coated overnight on microtiter plates at 4° C. After washing with PBS-0.05% T (PBS supplemented with 0.05% (v/v) Tween 20), the plates were blocked with 2% BSA (w/v) in PBS-0.1% T (PBS supplemented with 0.1% (v/v) Tween 20) for 1 h at room temperature. After washing with 100 μL PBS-0.05% T five times, exemplary multimeric proteins (SEQ ID NOs: 38-44 and 46-53) or 4-1BB-specific lipocalin mutein as included in the multimeric protein (SEQ ID NO: 64) at different concentrations, ranging from 100 to 0.002 nM, were added to the wells and incubated for 1 h at room temperature, followed by another wash step. Bound molecules under study were detected by incubation with 1:1000 diluted anti-NGAL-HRP in PBS-0.1% T-2% BSA. After an additional wash step, fluorogenic HRP substrate (QuantaBlu, Thermo) was added to each well and the fluorescence intensity was detected using a fluorescence microplate reader.
The results of exemplary experiments are depicted in FIG. 2, together with the fit curves resulting from a 1:1 binding sigmoidal fit, where the EC₅₀ value and the maximum signal were free parameters, and the slope was fixed to one. The observed EC₅₀ values toward the hu4-1BB of all tested multimeric proteins were in the sub nanomolar range.
In general terms: In an ELISA, binding on a coated surface is turned into a signal by an enzyme label.

The target of experiment [4] is T2, human 4-1BB on cells. The experiment can be described thus: flow cytometry, Flp-In-CHO::hu4-1BB cells. How it is done: (§1) CHO cells were stably transfected with human 4-1BB, cynomolgus 4-1BB, or a mock control using the Flp-In system (Life Technologies) according to the manufacturer's instructions. Transfected CHO cells were maintained in Ham's F12 medium (Life Technologies) supplemented with 10% Fetal Calf Serum (Biochrom) and 500 μg/ml Hygromycin B (Roth). Cells were cultured in cell culture flasks according to manufacturer's instruction (37° C., 5% CO₂ atmosphere).
(§2) 5×10⁴ cells per well were incubated for 1 h in ice-cold PBS containing 5% fetal calf serum (PBS-FCS). A dilution series of the tested multimeric proteins (SEQ ID NOs: 38-44 and 46-55), the 4-1BB-targeting lipocalin mutein as included in the multimeric proteins (SEQ ID NO: 64) or the GPC3-targeting lipocalin SEQ ID NO: 90 were added to the cells and incubated for 1 h on ice. Cells were washed twice with PBS and then incubated with a rabbit anti-NGAL or a goat anti-human IgG labeled with fluorescent dye Alexa 488 for 30 min on ice. Human IgG4 isotype (SEQ ID NOs: 29 and 30) and lipocalin mutein SEQ ID NO: 8 were tested as a negative control. Cells were subsequently washed and analyzed using iQue Flow cytometer (Intellicyte Screener). Mean geometric fluorescent signals were plotted and fitted with Graphpad software using nonlinear regression (shared bottom, four parameters, variable slope).
Background: A flow cytometer gives signals particle by particle.

Experiment [5] concerns the target T4, cynomolgus 4-1BB on CHO cells (cynomolgus, UniProt A9YYE7 24-254).
T4 construct: also called Flp-In-CHO::cyno4-1BB; cynomolgus 4-1BB-expressing CHO cells
The experiment can be described thus: flow cytometry, Flp-In-CHO::cyno4-1BB cells. How it is done: as §1, §2

The target in experiment [6] is T5, human GPC3 on HepG2 cells (human, UniProt P51654 25-554).
T5 construct: whole, on cells; Endogenous GPC3 of the tumor cell line; also called GPC3-positive tumor cell line HepG2; human GPC3-expressing HepG2 cells
Briefly: flow cytometry, HepG2 cells. The method, then:
GPC3-positive tumor cell line HepG2 was cultured in Dulbecco's Modified Eagle's Medium ([…], Pan Biotech) supplemented with 10% Fetal Calf Serum (Sigma-Aldrich) and in cell culture flasks according to manufacturer's instruction (37° C., 5% CO₂ atmosphere).
as §2

T2 sequence (Q07011 24-255): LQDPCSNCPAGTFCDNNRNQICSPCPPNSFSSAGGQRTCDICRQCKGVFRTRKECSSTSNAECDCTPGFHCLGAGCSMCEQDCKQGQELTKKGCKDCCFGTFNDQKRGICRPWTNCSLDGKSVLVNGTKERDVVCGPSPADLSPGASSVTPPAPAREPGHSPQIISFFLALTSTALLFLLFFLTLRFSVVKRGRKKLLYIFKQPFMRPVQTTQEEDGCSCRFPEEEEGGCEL
T4 sequence (A9YYE7 entry or part of it limits assumed): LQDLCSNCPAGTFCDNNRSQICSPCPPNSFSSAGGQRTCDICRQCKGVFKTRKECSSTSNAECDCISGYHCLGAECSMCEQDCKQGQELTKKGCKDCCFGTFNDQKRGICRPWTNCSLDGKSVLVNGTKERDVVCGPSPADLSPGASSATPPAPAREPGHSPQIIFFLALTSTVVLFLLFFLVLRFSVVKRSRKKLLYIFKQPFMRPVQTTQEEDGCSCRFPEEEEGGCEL
T5 sequence (P51654 25-554 limits assumed): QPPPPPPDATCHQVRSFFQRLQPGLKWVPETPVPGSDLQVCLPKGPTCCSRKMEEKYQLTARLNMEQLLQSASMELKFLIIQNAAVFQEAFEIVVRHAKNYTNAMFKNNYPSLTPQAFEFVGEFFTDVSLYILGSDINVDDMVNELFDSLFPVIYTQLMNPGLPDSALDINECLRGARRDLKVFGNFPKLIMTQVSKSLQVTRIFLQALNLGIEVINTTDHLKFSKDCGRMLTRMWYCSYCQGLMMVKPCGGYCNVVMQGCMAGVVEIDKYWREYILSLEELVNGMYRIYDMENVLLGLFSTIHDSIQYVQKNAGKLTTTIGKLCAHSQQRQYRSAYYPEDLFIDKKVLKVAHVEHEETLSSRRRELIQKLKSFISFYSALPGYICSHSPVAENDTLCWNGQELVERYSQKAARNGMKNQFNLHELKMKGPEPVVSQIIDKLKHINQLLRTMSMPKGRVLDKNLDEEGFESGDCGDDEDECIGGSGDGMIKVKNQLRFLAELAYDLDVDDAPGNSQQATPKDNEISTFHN

B1: multimeric protein SEQ ID NO: 50 (designed binder)
chain: QDSTSDLIPAPPLSKVPLQQNFQDNQFHGKWYVVGQAGNIRLREDKDPIKMMATIYELKEDKSYDVTMVKFDDKKCMYDIWTFVPGSQPGEFTLGKIKSFPGHTSSLVRVVSTNYNQHAMVFFKFVFQNREEFYITLYGRTKELTSELKENFIRFSKSLGLPENHIVFPVPIDQCIDGGGGGSGGGGSGGGGSGGGGSGGGGSGVRLWATRQAMLGQVHEVPEGWLIFVAEQEELYVRVQNGFRKVQLEARTPLGGGGSGGGGSGGGGSQDSTSDLIPAPPLSKVPLQQNFQDNQFHGKWYVVGQAGNIRLREDKDPIKMMATIYELKEDKSYDVTMVKFDDKKCMYDIWTFVPGSQPGEFTLGKIKSFPGHTSSLVRVVSTNYNQHAMVFFKFVFQNREEFYITLYGRTKELTSELKENFIRFSKSLGLPENHIVFPVPIDQCIDGGGSGGAPEQKLISEEDLGSHHHHHHHHHH
As to B1, the Kd in experiment [1] is 170 pM. Further, in experiment [1], the koff was 1.36e-05 s⁻¹. In addition, the kon in experiment [1] came out at 78800 M⁻¹ s⁻¹. Besides, the “EC50 [nM], 4-1BB bioassay (NFκB-luc2/4-1BB Jurkat luminescence), with HepG2 cells” value (from here on “EC50 [nM], 4-1BB bioassay”) in experiment [2] was 0.92 nM. In addition, the concentration giving a half-maximal response (EC50) in experiment [3] worked out at 130 pM; in experiment [4], 2490 pM; in experiment [5] it was 2620 pM.

B2: multimeric protein SEQ ID NO: 53 (designed binder)
chain: GVRLWATRQAMLGQVHEVPEGWLIFVAEQEELYVRVQNGFRKVQLEARTPLGGGGSGGGGSGGGGSQDSTSDLIPAPPLSKVPLQQNFQDNQFHGKWYVVGQAGNIRLREDKDPIKMMATIYELKEDKSYDVTMVKFDDKKCMYDIWTFVPGSQPGEFTLGKIKSFPGHTSSLVRVVSTNYNQHAMVFFKFVFQNREEFYITLYGRTKELTSELKENFIRFSKSLGLPENHIVFPVPIDQCIDGGGGGSGGGGSGGGGSQDSTSDLIPAPPLSKVPLQQNFQDNQFHGKWYVVGQAGNIRLREDKDPIKMMATIYELKEDKSYDVTMVKFDDKKCMYDIWTFVPGSQPGEFTLGKIKSFPGHTSSLVRVVSTNYNQHAMVFFKFVFQNREEFYITLYGRTKELTSELKENFIRFSKSLGLPENHIVFPVPIDQCIDGGGSGGAPEQKLISEEDLGSHHHHHHHHHH
With B2, in experiment [1], the Kd was 130 pM, the koff was found to be 9.99e-06 s⁻¹ and the kon was found to be 77100 M⁻¹ s⁻¹. Further, the “EC50 [nM], 4-1BB bioassay” value in experiment [2] amounted to 1.83 nM. Besides, the concentration for a half-maximal effect (EC50) in experiment [3] amounted to 140 pM. For the same molecule, in experiment [4], the EC50 is 4200 pM. In experiment [5], this molecule displayed an EC50 of 4550 pM.

B3: multimeric protein SEQ ID NO: 51 (designed binder)
chain: QDSTSDLIPAPPLSKVPLQQNFQDNQFHGKWYVVGQAGNIRLREDKDPIKMMATIYELKEDKSYDVTMVKFDDKKCMYDIWTFVPGSQPGEFTLGKIKSFPGHTSSLVRVVSTNYNQHAMVFFKFVFQNREEFYITLYGRTKELTSELKENFIRFSKSLGLPENHIVFPVPIDQCIDGAEAAAKEAAAKEAAAKAGVRLWATRQAMLGQVHEVPEGWLIFVAEQEELYVRVQNGFRKVQLEARTPLGGGGSGGGGSGGGGSQDSTSDLIPAPPLSKVPLQQNFQDNQFHGKWYVVGQAGNIRLREDKDPIKMMATIYELKEDKSYDVTMVKFDDKKCMYDIWTFVPGSQPGEFTLGKIKSFPGHTSSLVRVVSTNYNQHAMVFFKFVFQNREEFYITLYGRTKELTSELKENFIRFSKSLGLPENHIVFPVPIDQCIDGGGSGGAPEQKLISEEDLGSHHHHHHHHHH
Regarding B3, in experiment [1], the Kd came out at 360 pM, the dissociation rate constant (koff) was found to be 2.53e-05 s⁻¹ and the kon came out at 71000 M⁻¹ s⁻¹. Also, the “EC50 [nM], 4-1BB bioassay” value in experiment [2] turned out to be 0.97 nM. Moreover, in experiment [3], the concentration giving a half-maximal response (EC50) was determined as 150 pM. Besides, the concentration giving a half-maximal response (EC50) in experiment [4] amounted to 4410 pM. The molecule also came in with an EC50 in experiment [5] of 4410 pM.

B4: multimeric protein SEQ ID NO: 49 (designed binder)
chain: QDSTSDLIPAPPLSKVPLQQNFQDNQFHGKWYVVGQAGNIRLREDKDPIKMMATIYELKEDKSYDVTMVKFDDKKCMYDIWTFVPGSQPGEFTLGKIKSFPGHTSSLVRVVSTNYNQHAMVFFKFVFQNREEFYITLYGRTKELTSELKENFIRFSKSLGLPENHIVFPVPIDQCIDGGGGGSGVRLWATRQAMLGQVHEVPEGWLIFVAEQEELYVRVQNGFRKVQLEARTPLGGGGSGGGGSGGGGSQDSTSDLIPAPPLSKVPLQQNFQDNQFHGKWYVVGQAGNIRLREDKDPIKMMATIYELKEDKSYDVTMVKFDDKKCMYDIWTFVPGSQPGEFTLGKIKSFPGHTSSLVRVVSTNYNQHAMVFFKFVFQNREEFYITLYGRTKELTSELKENFIRFSKSLGLPENHIVFPVPIDQCIDGGGSGGAPEQKLISEEDLGSHHHHHHHHHH
As for B4, in experiment [1], the Kd amounted to 210 pM, the off-rate (koff) was found to be 1.91e-05 s⁻¹ and the kon came out at 90200 M⁻¹ s⁻¹. Also, the “EC50 [nM], 4-1BB bioassay” value in experiment [2] is 0.9 nM. The EC50 in experiment [3] was 130 pM. Also, a half-maximal response in experiment [4] (EC50) required 4990 pM. Further, it took 2750 pM to reach a half-maximal effect in experiment [5] (EC50).

B5: GPC3-specific lipocalin mutein SEQ ID NO: 90 (designed binder)
chain: QDSTSDLIPAPPLSKVPLQQNFQDNQFQGKWYVVGRAGNVGLREDKDPPKMWATIYELKEDKSYDVTNVRFARKKCTYSIGTFVPGSQPGEFTLGQIKSEPGGTANLVRVVSTNYNQHAMVFFKEVYQNREIFFIILYGRTKELTSELKENFIRFSKSLGLPENHIVFPVPIDQCIDG
notes: Monomeric hNGAL mutein
In experiment [6], B5 came in with a concentration for a half-maximal effect (EC50) of 1530 pM.
